Data taken from patent US20260217797A1 (Takeda / Millennium, published 2026).

Experiments:
[1] = target: SARS-CoV-2 RBD-mFc (SARS-CoV-2, UniProt P0DTC2 319-541); assay: Octet BLI, IgG, avid
[2] = target: SARS-CoV-2 Variant B.1.17 N501Y S1-His (SARS-CoV-2, UniProt P0DTC2 16-685); assay: Octet BLI, IgG, monovalent

B1: A-7 (antibody, V domains shown)
VH: EVQLVESGAEVRKPGASVKVSCKASGYTFTFYYIHWVRQAPGQGLEWMGWISPISGATNYAQTFQGRVTMTRDTSITTAYMELSSLTSDDTAVYYCAREKYYDSSGSSDYWGQGTLVTVSS
VL: QPVLTQPPSVSAAPGQNVTIFCSGSSSNIGNNYVSWYQQLPGPAPKLLIYENNKRPSGIPDRFSGSKSGTSATLGITGLQTGDEADYYCGTWESSLSAPRVFGSGTKLTVL
B1 was tested, and the Kd [1] was 0.0941 nM.

B2: A-8 (antibody, V domains shown)
VH: EVQLLESGGGLVQPGGSLRLSCAASGFTFSSYAMSWVRQAPGKGLEWVSAISGSGNSTSYADSVKGRFTLSRDNSKNTLYLQMNSLRAEDTAIYYCAKGLGTRSFNWGAFDYWGQGTLVTVSS
VL: DIRVTQSPSSLSASVGDRVTITCRASQGISYSLAWYQQKPGKAPKLLLYAASNLESGVPSRFSGSGSGTDYTLTVSSLQPEDFATYYCQQYYSTPWTFGQGTKVEIK
With B2 the Kd [1] was 0.106 nM.

B3: A-15 (antibody, V domains shown)
VH: QVQLVQSGAEVKKPGASVKVSCKASGYTSSSYYMHWVRQAPGQGPEWMGIINPGGTSTSYAQKFQGRVTMTRDTSTSTVYMELSSLRSEDTAVYYCAIGYCSTTSCRWGDAFDIWGQGTMVTVSS
VL: DIQVTQSPSSLSASVGDRVTITCRASQSISSYLNWYQQKPEKAPNLLIYAASSLQSGVPSRFSGSGSGTDFTLTISSLQPEDFATYYCQQSSTTPPTFGQGTKVEIK
For B3, the Kd [1] was 0.212 nM.

B4: A-19 (antibody, V domains shown)
VH: QVQLVQSGAEVKKPGESLKISCKGSGYSFTSYWIAWVRQMPGKGLEWMGIIYPGDSDTSYSPSFQGQVTISADKSISTAYLQWSSLKASDTAMYYCARGPNKYNWFDTWGQGTLVTVSS
VL: not shown
Binder B4 has a Kd [1] of 0.129 nM.

B5: A-12 (antibody, V domains shown)
VH: EVQLLESGGGLVQPGGSLRLSCAVSGLTVSSNYMSWVRQAPGKGLEWVSLIYSGGSTYYADSVKGRFTISRDNSKNTLYLQMNSLRAEDTAVYYCARGELGIPYGMDVWGQGTTVTVSS
VL: QSVLTQPPSVSAAPGQKVTISCSGGSSNVGDNFVSWYQQLPGTAPKLLIYDNNRRPSGIPDRFSGSKSGTSATLGITGLQTGDEADYYCGTWDSSLSAGVFGGGTKVTVL
In the case of B5, the Kd [1] is reported as 0.151 nM.

B6: A-5 (antibody, V domains shown)
VH: QVQLVESGGGLIQPGESLRLSCAASEFIVSRNYMSWVRQAPGKGLEWVSVIYSGGNTYYADSVKGRFTISRDNSKNTLYLQMNSLRAEDTAVYYCARDLRGPGCFDFWGQGTTVTVSS
VL: DIQVTQSPSSLSASVGDRVTITCQASQDISNFLNWYQQKPGKAPKLLIYDASNLETGVPSRFSASGSGTEFTFTISSLQPEDIATYYCQQYDNLRVTFGGGTKLEIK
B6 was tested, and the Kd [1] was 0.179 nM.

B7: A-3 (antibody, V domains shown)
VH: EVQLLESGPGLVKPSETLSLTCTVSGGSINSRSYYWGWIRQPPGKGLEWIGSIYYSGSTYYNPSLKSRVTISVDTSKNQFSLKLSSVIAADTAVYFCARLEQWELPGGWFDPWGQGTLVTVSS
VL: NFMLTQPHSVSESPGKTVTISCTRSSGSIASNYVQWYQQRPGSAPTTVIYEDNQRPSGVPDRFSGSIDISSNSASLTISGLKTEDEADYSCQSSDSSNVVFGGGTKLTVL
Binder B7 has a Kd [1] of 0.141 nM.

B8: A-14 (antibody, V domains shown)
VH: EVQLVESGGGVVQPGRSLRLSCAASGFTFSTYGMHWVRQAPGKGLEWVAVIWYDGSNKYYADSVKGRFTISRDNSKNTLYLQMNSLRAEDTAVYYCARSVDGDYLEYFQHWGQGTLVTVSS
VL: QPVLTQPRSVSGSPGQSVTISCTGTSSDVGGYNYVSWYQQHPGKAPKLMIYDVSKRPSGVPDRFSGSKSGNTASLTISGLQAEDEADYYCCSYAGGYTNYVFGTGTKLTVL
For B8, the Kd [1] was 0.158 nM.

B9: A-10 (antibody, V domains shown)
VH: QVQLVQSGGGVVQPGRSLRLSCAASGFTFSSYGMHWVRQAPGKGLEWVAVISYDGSNKYYTDSVKGRFTISRDNSKNTLYLQMNSLRAEDTAVYYCAKDLPREVYYDILTGYDNPYYYYGMDVWGQGTTVTVSS
VL: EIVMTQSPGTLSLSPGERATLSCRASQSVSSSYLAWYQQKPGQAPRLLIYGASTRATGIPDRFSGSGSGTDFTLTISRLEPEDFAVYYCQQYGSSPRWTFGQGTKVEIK
With B9 the Kd [1] was 0.0931 nM.

B10: A-23 (antibody, V domains shown)
VH: EVQLVESGGGLVQPGRSLRLSCAASGFTFDDYAMHWVRQAPGKGLEWVSGISWNSGTIGYADSVKGRFIISRDNAKNSLYLQMNSLRGEDMALYYCGKDRKREDPSLGGMDVWGQGTTVTVSS
VL: SYVLTQPPSVSVAPGQTARITCGGNNIGSKSVHWYQQKPGQAPVLVVYDDTDRPSGIPERFSGSNSGNTATLTISRVEAGDEADYYCQVWDSSSDHYVFGTGTKVTVL
B10 showed a Kd [2] of 1.2 nM.

B11: A-23.1 (antibody, V domains shown)
VH: EVQLVESGGGLVQPGRSLRLSCAASGFTIDDYAMHWVRQAPGKGLEWVSGISWNGGTIGYADSVKGRFIISRDNAKNSLYLQMNSLRGEDMALYYCGKDRKREDPSLGGMDVWGQGTTVTVSS
VL: SYVLTQPPSVSVAPGQTARITCLGNNIGSKSVHWYQQKPGQAPVLVVYDDTDRPSGIPERFSGSNSGNTATLTISRVEAGDEADYYCQVWDSESDHYVFGTGTKVTVL
In the case of B11, the Kd [2] is reported as 0.512 nM.

B12: A-4 (antibody, V domains shown)
VH: EVQLVESGGGLIQPGGSLTLSCAASGFTVSSNYMNWVRQAPGKGLEWVSVIYSGGSTYYADSVKGRFTISRDNSKNTLYLQMNSLRAEDTAVYYCAREVYSYFDYWGQGTLVTVSS
VL: DIQLTQSPSFLSASVGDRVTITCRASQGISSYLAWYQQKPGKAPKLLIYAASTLQSGVPSRFSGSGSGTEFTLTISRLQPEDLATYYCQQLNSYPPHTFGQGAKLEIK
B12 gave a Kd [1] of 0.663 nM.

B13: A-11 (antibody, V domains shown)
VH: EVQLVESGAEVKKPGSSVMVSCKASGGTFSRYAISWVRQAPGQGLEWMGGIIPVFGIVHYAQKFQGRVTITADKSTSTAYMELSSLRSEDTAAYYCARDRQQQPSPYYYHGMDVWGQGTTVTVSS
VL: DIRLTQSPSSLSASVGDRVTITCQASQDISNYLNWYQQKPGKAPKLLIYDASNLETGVPTRFSGSGSGTDFTFTISSLQPEDIATYYCQQYDNLPLFGGGTKVEIK
With B13 the Kd [1] was 0.173 nM.

B14: A-1 (antibody, V domains shown)
VH: EVQLVESGGGVVQPGGSLRLSCAASGFAFSTYWMHWVRQAPGKGLVWVSRINGDGSGTNYADSVKGRFTISRDNAKSTLYLQMNSLRTEDTAVYYCTRTAGRGAYDFGRFDPWGQGTLVTVSS
VL: DIVLTQTPLSLPVTPGEPASISCRSSQSLLHSNGYNYLDWYLQKAGQSPQLLVFLGSNRASGVPDRFSGSASGTDFTLKISRVEAEDVGVYYCMQALQIPITFGQGTRLEIK
Work on B14 yielded a Kd [1] of 0.089 nM.

B15: A-2 (antibody, V domains shown)
VH: EVQLVESGGGLIQPGGSLRLSCAASGFTVSSNYMSWVRQAPGKGLEWVSIIYSGGSTYYADSVKGRFTISRDNSKNTLYLQMNSLRAEDTAVYYCARAPSGEYGDPIYYWGQGTLVTVSS
VL: QSVLTQPPSASASLGASVKLTCTLSSGHSTYTIAWHQQQPEKGPRYLMKLNSDGSHSKGDGIPDRFSGSSSGAERYLTISSLQSEDEADYYCQTWGTGNHWVFGGGTKLTVL
For B15, the Kd [1] was 0.125 nM.

B16: A-13 (antibody, V domains shown)
VH: QVQLVQSGAEVKKPGASVKVSCKASGYTFTDYYMHWVRQAPGQGLEWMGWINPNSGGTNSAQKFQGRVTMTRDTSINTAYMELSRLRSDDTAVYFCARDSHLAMVRGDFEYWGQGTLVTVSS
VL: QSVLTQPASVSGSPGQSITISCTGTSSDVESYNVVSWYQQHPGKAPKLMIYEVSKRPSGVSHRFSGSKSGNTASLTISGLQAEDESDYYCCSYAGNSTWVFGGGTKLTVL
B16 showed a Kd [1] of 0.0959 nM.
